From patent US20170015742A1 (published 2017)

T1: Recombinant rat FcRn (rat, UniProt P13599 23-298, limits assumed)
T1 construct: FcRn is normally a heterodimer with beta-2-microglobulin
T1 sequence (looked up) 1: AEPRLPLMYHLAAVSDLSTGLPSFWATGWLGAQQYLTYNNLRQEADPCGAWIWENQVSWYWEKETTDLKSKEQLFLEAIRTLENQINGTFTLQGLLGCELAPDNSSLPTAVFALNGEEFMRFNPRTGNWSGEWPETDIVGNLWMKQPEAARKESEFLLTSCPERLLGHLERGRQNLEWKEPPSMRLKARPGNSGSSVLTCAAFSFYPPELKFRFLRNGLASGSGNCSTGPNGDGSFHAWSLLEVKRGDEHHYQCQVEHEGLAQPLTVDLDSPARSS
T1 sequence (looked up) 2: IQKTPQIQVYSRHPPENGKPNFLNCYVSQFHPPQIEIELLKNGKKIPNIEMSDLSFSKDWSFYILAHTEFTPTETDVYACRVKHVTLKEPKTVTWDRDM

T2: Recombinant human FcγRIIa R131, 6xHis-tagged (human, UniProt P12318 36-218, limits assumed)
T2 construct: Captured through its 6xHis tag
T2 sequence: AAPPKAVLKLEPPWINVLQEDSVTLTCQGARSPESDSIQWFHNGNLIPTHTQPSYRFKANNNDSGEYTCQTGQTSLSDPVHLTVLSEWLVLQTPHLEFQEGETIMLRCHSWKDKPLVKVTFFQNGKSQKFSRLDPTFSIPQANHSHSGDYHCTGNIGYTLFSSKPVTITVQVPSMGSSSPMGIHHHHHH

T3: Recombinant human FcγRIIb, 6xHis-tagged (human, UniProt P31994 46-217, limits assumed)
T3 construct: Captured through its 6xHis tag; also called huFcRIIb
T3 sequence: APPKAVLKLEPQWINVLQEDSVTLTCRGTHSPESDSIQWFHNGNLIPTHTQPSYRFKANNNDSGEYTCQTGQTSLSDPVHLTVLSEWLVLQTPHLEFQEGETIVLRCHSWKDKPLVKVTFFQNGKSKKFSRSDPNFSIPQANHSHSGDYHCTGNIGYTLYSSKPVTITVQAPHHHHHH

T4: Recombinant human FcγRIIa H131, 6xHis-tagged (human, UniProt P12318 36-218, limits assumed)
T4 construct: Captured through its 6xHis tag
T4 sequence: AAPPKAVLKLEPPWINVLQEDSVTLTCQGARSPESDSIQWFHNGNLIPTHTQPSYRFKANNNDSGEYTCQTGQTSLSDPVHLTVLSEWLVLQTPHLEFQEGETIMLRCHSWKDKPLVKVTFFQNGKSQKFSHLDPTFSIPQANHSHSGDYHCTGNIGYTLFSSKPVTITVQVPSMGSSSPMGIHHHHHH


Assays:
Recombinant rat FcRn = target: T1, Recombinant rat FcRn; experiment: Biacore SPR; DVD-Ig immobilised by amine coupling, recombinant FcRn injected; 1:1 binding fit
Protocol: Human, cynomolgus, mouse, rat and rabbit recombinant FcRns were injected over all the flow cells at a flow rate of 50 μL/minute for 1 minute at a concentrations range of from 2.7 to 6000 nM (three fold serial dilution), followed by a 2 minute dissociation time. The surfaces were regenerated with an injection of 10 mM HCl at 100 μL/minute for 2 seconds followed by an injection of HBS-EP+, pH 7.4, at a flow rate of 50 μL/minute for 30 seconds over all four flow cells. Samples were prepared and run in two running buffer systems, pH 6.0 MES-EP+, and pH […]. Recombinant human FcγRIIIa V158 and rat and mouse FcRn data were fitted to 1:1 kinetic model. Recombinant human FcγRIIa R131 and FcγRIIa H131, FcγRIIIa F158, and recombinant human, cynomolgus and rabbit FcRn binding data were fitted to a steady state affinity model. Biacore T200 Evaluation Software version 2.0 was used to fit all the data.

[1] = target: T5, Recombinant human FcγRIIIa V158, 6xHis-tagged (human, UniProt P08637 17-208, limits assumed); experiment: Biacore SPR; His-tagged huFcγRIIIa 158V captured on anti-6xHis antibody, DVD-Ig injected; steady state fit
T5 construct: Captured through its 6xHis tag; also called huFcRIIIa 158V
Protocol: (§1) A CM5 chip (GE Healthcare, Pittsburgh, Pa.) with mouse anti-6×His antibodies (“6×His” disclosed as SEQ ID NO: 405) that were directly immobilized on the chip via amine coupling according to the GE Healthcare protocol to the density of 10000RU (all flow cells) was used for experiments. Human FcγRs were captured on flow cells 2, 3 and 4. Flow cell 1 was used as a reference surface. HBS-EP+ was used as the running buffer. […] The chip surfaces were regenerated with an injection of 10 mM glycine pH 1.5 at a flow rate of 100 μL/minute over all four flow cells after each cycle.
The binding of DVD-Ig molecules to FcRn from various species and the binding of DVD-Ig molecules to various FcγRs were characterized by Biacore using the method described in Example 1.2.

[2] = target: T6, Recombinant human FcγRIIIa F158, 6xHis-tagged (human, UniProt P08637 17-208, limits assumed); experiment: Biacore SPR; His-tagged human FcγR captured on anti-6xHis antibody, DVD-Ig injected
T6 construct: Captured through its 6xHis tag
Protocol: as §1

[3] = target: T2, Recombinant human FcγRIIa R131, …; experiment: as above
Protocol: as §1

[4] = target: T3, Recombinant human FcγRIIb, 6xHis-tagged; experiment: as above
Protocol: as §1

[5] = target: T4, Recombinant human FcγRIIa H131, …; experiment: as above
Protocol: as §1

T6 sequence (P08637 other isoform, or with tags, fused parts or gaps limits assumed): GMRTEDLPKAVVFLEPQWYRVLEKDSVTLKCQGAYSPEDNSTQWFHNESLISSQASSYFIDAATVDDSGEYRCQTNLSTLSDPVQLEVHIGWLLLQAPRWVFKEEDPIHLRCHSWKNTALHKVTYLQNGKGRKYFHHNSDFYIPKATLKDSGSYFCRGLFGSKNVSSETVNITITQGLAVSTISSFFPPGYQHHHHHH
T5 sequence (P08637 other isoform, or with tags, fused parts or gaps limits assumed): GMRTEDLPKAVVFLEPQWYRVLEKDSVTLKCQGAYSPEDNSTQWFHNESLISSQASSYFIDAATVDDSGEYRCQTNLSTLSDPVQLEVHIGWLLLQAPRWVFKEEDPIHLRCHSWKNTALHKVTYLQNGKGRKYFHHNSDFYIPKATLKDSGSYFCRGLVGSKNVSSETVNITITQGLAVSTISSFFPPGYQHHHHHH

binding result (Recombinant rat FcRn) | Kd [1] [µM] | Binder | binding result [2] | binding result [3] | binding result [4] | binding result [5]
no binding (tested: FcRn 2.7 to 6000 nM) | 7.4 | 4G8.3-GS-9E8.4(g) (PR-1572102), anti-VEGF-A/anti-PDGF-BB DVD-Ig, hu IgG1/k L234A L235A H435A (bispecific antibody, also called 4G8.3-GS(9)-9E8.4 (g); hu VEGF 4G8.3-GS-hu PDGF 9E8.4 (germline) [hu IgG1/k]; LALA H435A) heavy: EVQLVQSGSELKKPGASVKVSCKASGYTFTNYGMYWVRQAPGQGLEWMGWINTETGKPTYADDFKGRFVFSLDTSVSTAYLQISSLKAEDTAVYYCARTNYYYRSYIFYFDYWGQGTMVTVSSGGGGSGGGGSEVTLRESGPALVKPTQTLTLTCTFSGFSLSTYGMGVGWIRQPPGKALEWLANIWWDDDKYYNPSLKNRLTISKDTSKNQVVLTMTNMDPVDTATYYCARIESIGTTYSFDYWGQGTMVTVSSASTKGPSVFPLAPSSKSTSGGTAALGCLVKDYFPEPVTVSWNSGALTSGVHTFPAVLQSSGLYSLSSVVTVPSSSLGTQTYICNVNHKPSNTKVDKKVEPKSCDKTHTCPPCPAPEAAGGPSVFLFPPKPKDTLMISRTPEVTCVVVDVSHEDPEVKFNWYVDGVEVHNAKTKPREEQYNSTYRVVSVLTVLHQDWLNGKEYKCKVSNKALPAPIEKTISKAKGQPREPQVYTLPPSREEMTKNQVSLTCLVKGFYPSDIAVEWESNGQPENNYKTTPPVLDSDGSFFLYSKLTVDKSRWQQGNVFSCSVMHEALHNAYTQKSLSLSPGK light: DTVLTQSPATLSLSPGERATLSCRASESVSTHMHWYQQKPGQAPRLLIYGASNLESGVPARFSGSGSGTDFTLTISSLEPEDFAVYFCQQSWNDPFTFGQGTKLEIKRGGSGGGGSGEFVLTQSPGTLSLSPGERATLSCERSSGDIGDSYVSWYQQKPGQAPRLVIYADDQRPSGIPDRFSGSGSGTDFTLTISRLEPEDFAVYYCQSYDINIDIVFGGGTKVEIKRTVAAPSVFIFPPSDEQLKSGTASVVCLLNNFYPREAKVQWKVDNALQSGNSQESVTEQDSKDSTYSLSSTLTLSKADYEKHKVYACEVTHQGLSSPVTKSFNRGEC | no binding (tested: DVD-Ig 31.25 to 4000 nM) | no binding (tested: DVD-Ig 31.25 to 4000 nM) | no binding (tested: DVD-Ig 31.25 to 4000 nM) | no binding (tested: DVD-Ig 31.25 to 4000 nM)
no binding (tested: FcRn 2.7 to 6000 nM) | 16 | 4G8.3-GS-9E8.4 (PR-1569574), anti-VEGF-A/anti-PDGF-BB DVD-Ig, hu IgG1/k mut(234,235) H435A (bispecific antibody, also called hVEGF 4G8.3-GS-hPDGF 9E8.4 [hu IgG1/k] mut(234, 235) H435A) heavy: EVQLVQSGSELKKPGASVKVSCKASGYTFTNYGMYWVRQAPGQGLEWMGWINTETGKPTYADDFKGRFVFSLDTSVSTAYLQISSLKAEDTAVYYCARTNYYYRSYIFYFDYWGQGTMVTVSSGGGGSGGGGSEVTLRESGPALVKPTQTLTLTCTFSGFSLSTYGMGVGWIRQPPGKALEWLANIWWDDDKYYNPSLKNRLTISKDTSKNQVVLTMTNMDPVDTATYYCARIESIGTTYSFDYWGQGTMVTVSSASTKGPSVFPLAPSSKSTSGGTAALGCLVKDYFPEPVTVSWNSGALTSGVHTFPAVLQSSGLYSLSSVVTVPSSSLGTQTYICNVNHKPSNTKVDKKVEPKSCDKTHTCPPCPAPEAAGGPSVFLFPPKPKDTLMISRTPEVTCVVVDVSHEDPEVKFNWYVDGVEVHNAKTKPREEQYNSTYRVVSVLTVLHQDWLNGKEYKCKVSNKALPAPIEKTISKAKGQPREPQVYTLPPSREEMTKNQVSLTCLVKGFYPSDIAVEWESNGQPENNYKTTPPVLDSDGSFFLYSKLTVDKSRWQQGNVFSCSVMHEALHNAYTQKSLSLSPGK light: DTVLTQSPATLSLSPGERATLSCRASESVSTHMHWYQQKPGQAPRLLIYGASNLESGVPARFSGSGSGTDFTLTISSLEPEDFAVYFCQQSWNDPFTFGQGTKLEIKRGGSGGGGSGEFVLTQSPGTLSLSPGERATLSCERSSGDIGDSYVSWYQQKPGQAPRLVIYADDQRPSGIPDRFSGSGSGTDFTLTISRLEPEDFAVYYCQSYDINIDIVFGGGTKVEIKGTVAAPSVFIFPPSDEQLKSGTASVVCLLNNFYPREAKVQWKVDNALQSGNSQESVTEQDSKDSTYSLSSTLTLSKADYEKHKVYACEVTHQGLSSPVTKSFNRGEC | no binding (tested: DVD-Ig 31.25 to 4000 nM) | no binding (tested: DVD-Ig 31.25 to 4000 nM) | no binding (tested: DVD-Ig 31.25 to 4000 nM) | no binding (tested: DVD-Ig 31.25 to 4000 nM)
no binding (tested: FcRn 2.7 to 6000 nM) | 6.2 | 4G8.3-SL-9E8.4(g) (PR-1572105), anti-VEGF-A/anti-PDGF-BB DVD-Ig, hu IgG1/k L234A L235A H435A (bispecific antibody, also called hu VEGF 4G8.3-SL-hu PDGF 9E8.4 (germline) [hu IgG1/k]; LALA H435A) heavy: EVQLVQSGSELKKPGASVKVSCKASGYTFTNYGMYWVRQAPGQGLEWMGWINTETGKPTYADDFKGRFVFSLDTSVSTAYLQISSLKAEDTAVYYCARTNYYYRSYIFYFDYWGQGTMVTVSSASTKGPEVTLRESGPALVKPTQTLTLTCTFSGFSLSTYGMGVGWIRQPPGKALEWLANIWWDDDKYYNPSLKNRLTISKDTSKNQVVLTMTNMDPVDTATYYCARIESIGTTYSFDYWGQGTMVTVSSASTKGPSVFPLAPSSKSTSGGTAALGCLVKDYFPEPVTVSWNSGALTSGVHTFPAVLQSSGLYSLSSVVTVPSSSLGTQTYICNVNHKPSNTKVDKKVEPKSCDKTHTCPPCPAPEAAGGPSVFLFPPKPKDTLMISRTPEVTCVVVDVSHEDPEVKFNWYVDGVEVHNAKTKPREEQYNSTYRVVSVLTVLHQDWLNGKEYKCKVSNKALPAPIEKTISKAKGQPREPQVYTLPPSREEMTKNQVSLTCLVKGFYPSDIAVEWESNGQPENNYKTTPPVLDSDGSFFLYSKLTVDKSRWQQGNVFSCSVMHEALHNAYTQKSLSLSPGK light: DTVLTQSPATLSLSPGERATLSCRASESVSTHMHWYQQKPGQAPRLLIYGASNLESGVPARFSGSGSGTDFTLTISSLEPEDFAVYFCQQSWNDPFTFGQGTKLEIKRTVAAPSVFIFPPEFVLTQSPGTLSLSPGERATLSCERSSGDIGDSYVSWYQQKPGQAPRLVIYADDQRPSGIPDRFSGSGSGTDFTLTISRLEPEDFAVYYCQSYDINIDIVFGGGTKVEIKRTVAAPSVFIFPPSDEQLKSGTASVVCLLNNFYPREAKVQWKVDNALQSGNSQESVTEQDSKDSTYSLSSTLTLSKADYEKHKVYACEVTHQGLSSPVTKSFNRGEC | no binding (tested: DVD-Ig 31.25 to 4000 nM) | no binding (tested: DVD-Ig 31.25 to 4000 nM) | no binding (tested: DVD-Ig 31.25 to 4000 nM) | no binding (tested: DVD-Ig 31.25 to 4000 nM)
